# Measurements from patent US20040258659A1.
# Biological target: CCR5, P51681
# Assay: competitive radioligand binding on whole CHO-CCR5 cells at 4 C, 12 pM [125I]MIP-1α tracer
# Details: remark: other sources report otherwise
# Sequence of CCR5, P51681 (P51681 whole entry): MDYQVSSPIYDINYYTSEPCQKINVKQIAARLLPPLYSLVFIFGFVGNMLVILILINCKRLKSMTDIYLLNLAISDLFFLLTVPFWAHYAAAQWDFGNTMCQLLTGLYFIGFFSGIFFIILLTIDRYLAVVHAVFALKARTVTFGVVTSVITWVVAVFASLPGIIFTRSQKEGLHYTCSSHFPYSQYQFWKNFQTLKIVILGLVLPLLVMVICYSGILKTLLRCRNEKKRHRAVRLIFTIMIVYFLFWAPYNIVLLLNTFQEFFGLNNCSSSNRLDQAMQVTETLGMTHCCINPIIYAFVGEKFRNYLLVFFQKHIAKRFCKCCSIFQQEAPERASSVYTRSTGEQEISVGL
binder,measurement,value
"RANTES, P13501 24-91 (ligand, human, UniProt P13501 24-91, looked up) SPYSSDTTPCCFAYIARPLPRAHIKEYFYTSGKCSNPAVVFVTRKNRQVCANPEKKWVREYINSLEMS",IC50,1.7 nM
